Assay results as given in PMC6677536 (2019).

B1: Full-length Nxf2, 3xFLAG-tagged [D. melanogaster] / Full-length Panx, HA-tagged [D. melanogaster] (parent complex)
chain 1: MPNQMRVLDFGDGSVPIQLDYPDSKIFSKCSSYGDRVPGTHWNEITVHHKGRLEYSPNPEQIILDALYQAIDGADFFPVFYQRGKNMDTMLVRNCKAAIDKLFKQRLSINLKGGASIPISIQLGVAQYQRHQITPTFHIARVVTRLMKQLIQRDGVDGLLNLDNFGSHPEFKNLVVSLGNPSILMNVCQVIHNDDNERFRLNGFILSNNRIRDIRPLTLLANVDYALLDLRGNKIKSAERLCRALEQFRARELLLENNPIVKISNFPANIKSLESNFELVDGKPFNMLHKIFSPLDVEIDLEVDGARIDTNNMWKLPEFENSQHWHAFMIPDPSHEFNQEVFFDFFFIRLDPTLSNFYPCYYKYINTEHVFLVRNCFDQIAHLVNNCNLEMTIPTGDRIFRYYLRMNVSTVKQHHVDPEECIQKAVSQCYVAQNRMLNLERFHSRECLKDVMVSLSSPKILTYVLSVASRKFMTTCSEIRLCHNKVLVLDGAHVLGMMGCLRAVDLSHNWVQDLSSIHSLGNLPLKSLVLHGNKLCRNYRLPSEYVRAVKEVFPQLTTLDGVDLQTNPGQSLQKNFLCDTGAYELVGAFLENYLREFENDEFRHNLYKYYSENSIFTLTCNYNVVQNHQTPKILQRLSKYNRHARNLRNKDYSKASDGVFFGCTYIVEILLQLPRVTHDFHSLQTDVMHYNGKGAVIYVAGLLRDEPPSTRNGHGSKTDIGGVLLGFSRQFVVTFDEANLGLGKRARRLKIANERLHITNPSKTAIRNAFSVNFPDPSERQAEEDSLDVKDHKLLLFQEVTGLISTWVTSIVEEADWDFERALKLFIQKNADHEIPDLAFA
chain 2: MEAPMKLEVKVENYVECGINEDEATPLREGTGETPPHAFACGVPMSGSGWCSDPEDGNLVHHSATPTSDEHLQPSLDTIEPKMEPKIKEDADNAMLDSLLADPFENNSPATLQTPADVKPNAMLDSVEQGSRSCELLPSEFSKRENLDDMDLFSLKAAKTLVPDEQQSFPQNDTPIDDPEAADLIAQKREILKMLEMTAENRKVKHKKKKHKKERSHRSNKHQEESRKRNHSNSSSDEGADDKNQFDCDYRGHKKYKNRRGSASSQNESSKERKLRDTELDYVPVRPDEHFIRPIKFSNLIERRPPQVEFNTVNLSKADKRSLAVARAELVLEQIQQKANKEEPPEFHMVDTICKLPVNESFRNQDCFENPSPICNNMNVVYKFNSTPGTRIDLSKWGLETVPEATKRLLRLLGIDVARLKELQSTVKPSQRILKLKKEQLEQGLAPTEEQETATLYKNAATQTERRTATRDAGTQVRLESKLNGAFWQNPHFDPMNLTQHQSNVMLALQEIYQTLPSATMAVKLSRALAPALAIIKGRQP

Variants of: B1
Assay: FLAG-tag co-immunoprecipitation, western blot quantification; lysates of transfected S2 cells; read off a plot

log10 ratio	Variant
~-0.45 log10 coIP index [arbitrary unit]	chain 1 R755G
